In the nanobody polyreactivity screen of Harvey et al. (2022):

Experiment: yeast display, Sf9 membrane polyspecificity reagent, FACS + sequencing; frameworks hold sequencing errors
Procedure, shortened: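 Nanobodies from a synthetic yeast display library (Saccharomyces cerevisiae BJ5465), induced 36–48 hours with galactose, were stained 1 hour at 4 °C with 10% biotinylated, detergent-solubilized Sf9 membrane reagent, enriched on streptavidin microbeads, then FACS-sorted. Anti-HA (expression) and streptavidin (reagent binding) fluorescence set low and high (top ~1%) gates. Polyreactivity labels come from the gate of origin. Genes were colony-PCR amplified, MiSeq 2 × 250 sequenced and filtered by CDR length.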

Sequence	polyreactivity (PSR sort gate)
QVQLVESGGGLVQAGGSLRLSCAASGIIFSGNAMGWSRQAPGKERELVAAITLSGGSTYYADSVKGRFTISRDNAKNTVYLQMNSLKPEDTAVYYCNAVYDTKYSLRDIDTEYGSWGQGTQVTVSS	low polyreactivity
QVQLEESGGGLVPAGGILRLSCAASGSIFSPNAIGWYRQAAGKEMELDASISSRGGSTYYADSVKGRFNISRDYAKNTVYLKMNSLKPEDTAVYYCAAAVQTRRGTRFDYWGQGTQVTVSS	low polyreactivity
QVQLVESGGGLVQAGGSLRLSCAASGSTFYYNAMGWYRQAPGKERELVARISRSGGSTYADSVKGRFTISRDNAKNTVYLQMNSLIPEDTAVYYCNADAYGTPEFTSYAVRYDYWGQGTQVTVSS	low polyreactivity
QVQLVESGGGLVQAGGSLRLSCAASGRIFFVYAMGWYRQAPGKERELVASITGGGSTNYADSVKGRFTISRDNAKNTVYLQMNSLKPEDTAVYYCAADIHSTRVFPEYPSGYDYWGQGTQVTVSS	low polyreactivity
QVQLVESGGGLVQAGGSLRLSCAASGSTFFYNAMGWYRQAPGKERELVAAITVTGTSTYYADSVKGRFTISRDNAKNTVYLQMNSLKPEDTGVYYCNTSLKRRRLRFNYWGQGTQVTVSS	low polyreactivity
QVQLVESGGGLVQAGGSLRLSCAASGFTFGYYAMGCYRQAPGKERELVAAISWSGGSTYYADSVKGRFTISRDNAKNTVYLQMNSLKPEDSAVYYCAAQSYLGRTWLDYWGQGTQVTVSS	high polyreactivity
QVQLVESGGGLVQAGGSLRLRCAATGHIFYYYTMGWSRQAPGKERELVAGITIGGSTNYADSVKGRFTISRDNAKNTVYLQMKSLKPEDTAVYYCNVVKYVYIYSYWEYYYWGQGTQVTVSS	low polyreactivity
QVQLVESGGGLVQAGGSLRLSCAASGSTFDANAMGWSRQAPRKERELVATISDGGSTNYADSVKGRFTISSDNAKNTVYLQMISVKPEDTAVYYCAAVKLFLGLGFEYWGQGTQVTVSS	low polyreactivity
QVQLVESGGGLVQAGGSLRLSCAASGSTFQAYVMGWDRQAPGKERELVAAISRSGGSTYYADSVKGRFTISRDNAKNTVYLQLHSLKPEDTAVYYCAVDASRYGSTGHYGFYYWGQGTQVTVSS	low polyreactivity
QEHLQESGGGLVQAGGDLRLSSPSSGNIFRDYISGCYRQAPGKEREFAAGIDRGANTNYADSVKGRFTISRDNAKNTVYLQMISLKPVDTAVYYCGVHTAIVPEFIYWGQGTQVTVSS	low polyreactivity
QVQLQESGGGLVQAGGSLRLSCAASGYISFSGYMGRYRQAPGKEREFVDSITPGRSTYYADSVKGRFTISRDNAENTVYLQMNSLKPEDTAVYYCAADDSRTEQHAYWGQGTQVTVSS	high polyreactivity
QVQLVESGGGLVQEGGSLRLICSASGSTFRANAMGWYRQAPGKERELVAAITSSGGSTYYADSVKGRFTISRDNAKNTVYLQMNSLKPEDTAVYYCAKENAPSRLTYGYWGQGTQVTVSS	low polyreactivity
QVQLVESGGVLVQAGGSLRLSCAASGSTFSYYAMGWYRQAPGKERELVAAIDSSGGRTYYADSVKGRFTISRDNAKNTVYLHMNSLKPEDTAVYYCAADASYTEGMDYWGQGTQVTVSS	high polyreactivity
QVQLVESGGGLVQAGGSLRLTCAASARTFFRNTMGSYRQATGKERELVATISWSGGSTNSADSVKGRFTISRDNAKNTVSLQMNSLKPEDTAVYYCAAVDYDTSIYDRPGGFDYWGQGTQVTVSS	low polyreactivity
QVQLVESGGGLVQAGGSLRLSFAASGRTFGEYTMGWYRQATGKERELVAAISSAGRTNYADSVKGRFTISRDNAKNTVYLQMNSLKPEDTAVYYCAADWTDDVPGYDYWGQGTQVTVSS	low polyreactivity
QGQLVESGGGLVQAGGSLRLTCAASGFSFFDYAMGWYRQAPWKERELVAAISWDGDNTYYADSVKGRFTISRDNAKYTVYLQMNSLKPDDSAVYYCNADYENYEQFFDYWGQGTQVTVSS	high polyreactivity

Sequence	polyreactivity (PSR sort gate)
QVQLVESGGGLVQAGGSLRLSCAAYGSTFTRYTMGWYRQAPGKDRELVASSTRTGSTNYADSVKGRFTISRDNAKNTVYLQMYSLKPEDTAVYYCAGGRYYSYRFSFGYWGQGTQVTVSS	high polyreactivity
QVQLVESGGGLVQAGGSLRLTCAASGSIFTAYAMRLYRQAPGKERELVAAIDDSGDSTYYADSVKGRFTISRDNAKITVYLQMNSLKPEDTAVYYCKAEYRVNKEYDYWGQGTQVTVSS	low polyreactivity
QVQLVESGGGLVQAGGSLRLSCPASGFTFYRYAMGWYRQAPGKERELVASISWRGGNTYYADSVKGRFTISRDNEKNTVYLQMNSLKPEDTAVYYCAARGGVLKGYYYWGQGTQVTVSS	high polyreactivity
QVQLVESGGGLVQAGGSLRLSCAASGSTFGVYTMGWYRQAPGKERELVAAITKSGGSTYYADSVKGRFTISRDNAKNTVYLQMNSLKPEDTAVYYCAADATSPLTWFDYWGQGTQVTVSS	low polyreactivity
QVQLVESGGGLVQAGGSLRLSCAASGRIFRPYAMGWYRQAPGKERELVAAITQSGGITSYADSVKGRFTISRDNAKYTVYLQMNSLKPEDTAVYYCAADDFTTAGFGMDYWGEGTQVTVSS	low polyreactivity
QVQLVESGGGLVQAGGSLRLSCAASGRIFRYYAMGWYRQAPGKERELVAAISWSGTSTYYADSVKGRFTISRDNAKNTVYLQMNSLKPEDTAVYYCAKVGYQYATYRSDYWGQGTQVTVSS	high polyreactivity
QVQLVESGGGLVQAGGSLRLSCAASGRTFYFYAMGWYRQAPGKERELVASITSSGGNTYYADSVKGRVTISRDNAKNTVYLQMNSLKPEDTAVYYCAARWFPWLQWKRYDYWGQGTQVTVSS	low polyreactivity
QVQLVESGGGLVQAGGSLRLSCAASGSIYKYYAMGWYRQAPGKERELVAALTIGGITNYADSVKGGFTISRDNATNTVYLQMTSLKPEDPAVYYCATGVYYSAIVYGGYDYWGQGTQVTVSS	low polyreactivity
QVQLVDSGGGLVQAGGSLRLSCAASGNILRKYAMGWYRQAPGKERELVAAISSSGGRTYYADSVKGRFTISRDNAKNTVYLQMYSLKPEDTAVYYCAKDPYGRLQPRPRFGYWGQGTQVTVTS	high polyreactivity
QVQLVESGGGLVQAGGSLRLSCAASGRIIRTYSMGRYRQAPGKERELVAVISRRGGRTYYADSVKGRFTFSRDNAKNTVYVQINSLKPEDTAVYYCNADYSGGGGGYWGQGTLVTVSS	high polyreactivity
QVQLVESGGGLVQAGGSLRLSCAASGRTFRVYAKGWYRQAPGKERDFVAAITDSGGRKYYADSVKGRFTISRDNAKHTVYVQMNSLKPEDTAVYYCNAYEYFVRYDTYLFRYDYWGQGTQVTVSS	low polyreactivity
QFQLVDSGGGLVQPGGSLRLRCAASGLTFQQYAMGWYRQAPGKERELVAAITSDGASTNYADSVKGRFTISRDNAKNTVYLQMNSLKPEDTAVYYCAARRRSRQYRYDYWGQGTQVTVSS	high polyreactivity
QVQLVESGGGLVQAGGSLRLSSAASGSTFPYNAMGWYRQAPGKARELVAAITSRGGSTYYADSVKGRFTISRDNAKNTVYLQMNSLKPEDTAVYYCATPGDTYGWTRRRYYYWGQGTQVTVSS	high polyreactivity
QVQLVESGGGLVQAGGSLRLSCAASGSTFTYYAMGWYRQAPGKERELVAAISRRGGSTYYADSVKGRFTISRDNAKNTVYLQMNSLKPEDTAVYYCNARLKPLWGGRYDYWGQGTQVTVSS	high polyreactivity
QVQLVESGGGLVQAGGSLRLSCAASGRIFSSYAMGWNRQAPGKERELVAAITDGDSTNYADSVKGRFTIARDNAKNTDYFQMNSLKPEDTAVYYCAVDILWYYPPGNYYYSSYDYWGQGTQVTVSS	low polyreactivity
